Experimental data taken from article PMC3520923, “Expression, Characterization, and Cellular Localization of Knowpains, Papain-Like Cysteine Proteases of the Plasmodium knowlesi Malaria Parasite” (PLoS ONE, 2012).

Assays:
knowpain-3 (KP3) = molecular target: T1, knowpain-3 (KP3) (Plasmodium knowlesi, UniProt A0A384KX24); assay: inhibition of Z-LR-AMC hydrolysis, fluorescence; assay type: biochemical; conditions: 10 µM inhibitor, 100 nM enzyme, 5 min preincubation, sodium acetate pH 5.5, 25 µM Z-LR-AMC; covalent
T1 construct: gene PKNH_0912900
T1 sequence (A0A384KX24 entry or part of it): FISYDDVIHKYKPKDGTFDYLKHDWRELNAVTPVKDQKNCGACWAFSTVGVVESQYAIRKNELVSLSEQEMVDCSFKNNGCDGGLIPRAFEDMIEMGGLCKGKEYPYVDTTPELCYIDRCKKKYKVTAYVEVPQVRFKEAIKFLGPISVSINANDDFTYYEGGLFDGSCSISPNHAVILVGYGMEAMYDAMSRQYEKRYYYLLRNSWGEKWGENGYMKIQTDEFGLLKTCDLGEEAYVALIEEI

knowpain-4 (KP4) = molecular target: T2, knowpain-4 (KP4) (Plasmodium knowlesi, UniProt A0A384LCH8); assay: inhibition of Z-LR-AMC hydrolysis, fluorescence; assay type: biochemical; conditions: 10 µM inhibitor, 10 nM enzyme, 5 min preincubation, sodium acetate pH 5.5, 25 µM Z-LR-AMC; covalent
T2 construct: gene PKNH_0912800
T2 sequence (A0A384LCH8 entry or part of it): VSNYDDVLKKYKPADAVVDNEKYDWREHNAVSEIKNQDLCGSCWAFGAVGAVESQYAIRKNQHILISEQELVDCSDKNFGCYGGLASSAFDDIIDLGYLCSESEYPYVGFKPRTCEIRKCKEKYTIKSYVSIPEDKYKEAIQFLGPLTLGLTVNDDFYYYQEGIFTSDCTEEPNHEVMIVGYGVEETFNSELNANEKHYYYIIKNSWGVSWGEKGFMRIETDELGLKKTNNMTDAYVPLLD

[1] = tested on: Cc1cc(=O)oc2cc(NC(=O)[C@H](CCCNC(=N)N)NC(=O)[C@H](CC(C)C)NC(=O)OCc3ccccc3)ccc12; assay: purified protein; conditions: 100 mM sodium acetate pH 5.5, 10 mM DTT, 37°C
[2] = tested on: Cc1cc(=O)oc2cc(NC(=O)[C@H](CCCNC(=N)N)NC(=O)[C@H](CCCNC(=N)N)NC(=O)OCc3ccccc3)ccc12; assay: purified protein; conditions: 100 mM sodium acetate pH 5.5, 10 mM DTT, 37°C
Excerpt: (§1) fluorogenic AMC release, initial rates, ORIGIN fit on knowpain-4 (KP4)

[3] = tested on: Cc1cc(=O)oc2cc(NC(=O)[C@H](CCCNC(=N)N)NC(=O)[C@H](Cc3ccccc3)NC(=O)OCc3ccccc3)ccc12; assay: purified protein; conditions: 100 mM sodium acetate pH 5.5, 10 mM DTT, 37°C
Excerpt: as §1

Compound: CC(C)C[C@H](NC(=O)[C@@H]1O[C@H]1C(=O)O)C(=O)NCCCCN=C(N)N [E64, trans-epoxysuccinyl-L-leucylamido-(4-guanidino) butane]
- % of control activity at 10 μM (knowpain-3 (KP3)): blocked by the cysteine protease inhibitors E64 and leupeptin
- % of control activity at 10 μM (knowpain-4 (KP4)): blocked by the cysteine protease inhibitors E64 and leupeptin

Compound: knowpain-2 (KP2) (Plasmodium knowlesi strain H)
- Km [1]: 14.26 ± 0.27 µM
- kcat [1]: 0.0011 s⁻¹
- kcat/Km [1]: 75.6 M⁻¹ s⁻¹

Compound: knowpain-3 (KP3) (Plasmodium knowlesi strain H)
- Km [1]: 30.56 ± 1.23 µM
- kcat [1]: 0.0156 s⁻¹
- kcat/Km [1]: 511 M⁻¹ s⁻¹

Compound: knowpain-4 (KP4) (Plasmodium knowlesi strain H)
- Km [1]: 4.20 ± 0.25 µM
- kcat [1]: 0.0129 s⁻¹
- kcat/Km [1]: 3070 M⁻¹ s⁻¹
- Km [2]: 2.13 ± 0.17 µM
- kcat [2]: 0.0435 s⁻¹
- kcat/Km [2]: 20500 M⁻¹ s⁻¹
- Km [3]: 4.20 ± 0.19 µM
- kcat [3]: 0.0062 s⁻¹
- kcat/Km [3]: 1470 M⁻¹ s⁻¹
